The values that follow come from patent US20040267001A1, “Genes encoding baeyer-villiger monooxygenases” (priority 2001, published 2004).

The labels stand for the following.
B1: ORF 12: Rhodococcus erythropolis AN12 ORF 12 chnB monooxygenase, protein SEQ ID NO:30, expressed in E. coli (protein)
chain: VNNESDHFEVVIIGGGISGIGAAIHLQRLGIDNFALLEKADSLGGTWRANTYPGCACDVPSGLYSYSFAANPDWTRLFAEQPEIREYIENTAGTHGVDKHVRFGVEMLSARWDASQSLWKITTSSGELTARFVIAAAGPWNEPLTPAIPGLEAFEGEVFHSSQWNHDYDLTGKLVAVVGTGASAVQFVPRIVSQVSALHLYQRTAQWVLPKPDHYVPRIERSVMRFVPGAQKALRSIEYGIMEALGLGFRNPWILRIVQKLGSAQLRLQVRDPKLRKALTPDYTLGCKRLLMSNSYYPALGKPNVSVHANAVEQIRGNTVIGADGVEAEVDAIIFGTGFHILDMPIASKVFDGEGRSLDDHWQGSPQAYFGSAVSGFPNAFILLGPSLGTGHTSAFMILEAQLNYVAQAIGHARRHGWQTIDVREEVQAAFNSQVQEALGTTVYNAGGCESYFFDVNGRNSFNWPWSSGAMRRRLRDFDPYAYNHTSNPESDNTPPEPTPSEPTPSEPTPSEPTTSPEPEYTA
modifications: Rhodococcus erythropolis AN12
B2: ORF 17: Rhodococcus erythropolis AN12 ORF 17 chnB monooxygenase, protein SEQ ID NO:40, expressed in E. coli (protein)
chain: MTQHVDVLIIGAGLSGIGAACHLIREQTGSTYAILERRENIGGTWDLFKYPGIRSDSDMLTFGFGFRPWIGTKVLADGASIRDYVEETAKEYGVTDHINFGRKVVAMDFDRTAAQWSVTVLVEATGETETWTANVLVGACGYYNYDKGYRPAFPGEDDFRGQIVHPQHWPEDLDYTGKKVVVIGSGATAITLIPSMAPTAGHVTMLQRSPTWIQALPSEDPVAKGLKLARVPDQIAYKIGRARNIALQRASFQLSRTNPKLAKKLFLAQIRLQLGKNVDLRHFTPSYNPWDQRLCVVPNGDLFKVLKSGKADIVTDRIATFTEKGIVTESGREIEADVIVTATGLNVQILGGATMSIDGEPVKLNETVAYKSVLYSDIPNFLMILGYTNASWTLKADLAASYLCRVLKIMRDRSYTTFEVHAEPEDFAEESLMGGALTSGYIQRGDGEMPRQGARGAWKVVNNYYRDRKLMHDAEIEDGVLQFSKVDIAVVPDSKVASA
modifications: Rhodococcus erythropolis AN12
B3: ORF 11: Rhodococcus erythropolis AN12 ORF 11 chnB monooxygenase, protein SEQ ID NO:28, expressed in E. coli (protein)
chain: MSPSPLPSVCIIGAGPTGITTAKRMKEFGIPFDCYEASDEVGGNWYYKNPNGMSACYQSLHIDTSKWRLAFEDFPVSADLPDFPHHSELFQYFKDYVEHFGLRESIIFNTSVVAAERDANGLWTVTRSDGEVRTYDVLMVCNGHHWDPNIPDYPGEFDGVLMHSHSYNDPFDPIDMRGKKVVVVGMGNSGLDIASELGQRYLADKLIVSARRGVWVLPKYLGGVPGDKLITPPWMPRGLRLFLSRRFLGKNLGTMEGYGLPKPDHRPFEAHPSASGEFLGRAGSGDITFKPAITKLDGKQVHFADGTAEDVDVVVCATGYNISFPFFDDPNLLPDKDNRFPLFKRMMKPGIDNLFFMGLAQPMPTLVNFAEQQSKLVAAYLTGKYQLPSANEMQEITKADEAYFLAPYYKSPRHTIQLEFDPYVRNMNKEIAKGTKRAAASGNKLPVAARAAAHELEKADRA
modifications: Rhodococcus erythropolis AN12
B4: ORF 8: Rhodococcus erythropolis AN12 ORF 8 chnB monooxygenase, protein SEQ ID NO:22, expressed in E. coli (protein)
chain: MSTEGKYALIGAGPSGLAGARNLDRAGIAFDGFESHDDVGGLWDIDNPHSTVYESAHLISSKGTTAFAEFPMADSVADYPSHIELAEYFRDYADTHDLRRHFAFGTTVIDVLPVDSLWQVTTRSRSGETSVARYRGVIIANGTLSKPNIPTFRGDFTGTLMHTSEYRSAEIFRGKRVLVIGAGNSGCDIAVDAVHQAECVDLSVRRGYYFVPKYLFGRPSDTLNQGKPLPPWIKQRVDTLLLKQFTGDPVRFGFPAPDYKIYESHPVVNSLILHHIGHGDVHVRADVDRFEGKTVRFVDGSSADYDLVLCATGYHLDYPFIAREDLDWSGAAPDLFLNVASRRHDNLFVLGMVEASGLGWQGRYQQAELVAKLITARTEAPAAAREFSAAAAGPPPDLSGGYKYLKLGRMAYYVNKDAYRSAIRRHIGLLDAALTKGGQ
modifications: Rhodococcus erythropolis AN12
B5: ORF 18: Rhodococcus erythropolis AN12 ORF 18 chnB monooxygenase, protein SEQ ID NO:42, expressed in E. coli (protein)
chain: MSSRVNDGHIAIIGTGFSGLCMAIELKKKGIDDFVLYERADDVGGTWRDNTYPGAACDVPSVLYSYSFAQNPNWTRIFPPWSELLDYLRSVAAQYDLLPHIRFGVEVSEMRFDEDRLRWNIQFASGESVTAAVVVNGSGGLSNPYIPQLPGLESFEGAAFHSAKWRHDLDMSGRRVAVIGSGASAIQFVPEIAPHTETLHVFQRSPNWVMPRGDAALSPATRERFSRRPYRQRWLRWRTYWAFEKLASAFLGNRKLVEQYRSQALANLQQQVPDSDLRQKVTPDYDPGCKRRLISDDWYPALQRENVHLNTSGVSEIRPHSIIDSEGAEHEVDTLIFATGFQATSFLAPMKVFGREGVELSDSWREGAATKLGLASAAFPNLWFLNGPNTGLGHNSIIFMIEAQARYIASAVQYMRRKSITALELDRTVQTGSYAATQERMRRTVWASGGCDSWYQSADGRIDTLWPASTIEYWLRTRLFRKSDFHALTTGKG
modifications: Rhodococcus erythropolis AN12
B6: ORF 9: Rhodococcus erythropolis AN12 ORF 9 chnB monooxygenase, protein SEQ ID NO:24, expressed in E. coli (protein)
chain: MVDIDPTSGPSAGDEETRTRRTRVVVIGAGFGGIGTAVRLKQSGIDDFVVLERAAEPGGTWQVNTYPGAQCDIPSILYSFSFAPNPNWTRLYPLQPEIYDYLRDCVHRFGLAGHFHCNQDVTEASWDEQAQIWRVHTAETVWEAQFLVAATGPFSAPATPDLPGLESFRGQMFHTADWNHDHDLRGERIAVVGTGASAVQIIPRLQPLADTLTVFQRTPTWILPHPDQPMTGWPSALFERVPLTQRLARKGLDLLQEALVPGFVYKPSLLKGLAALGRAHLRRQVRDPELRAKLLPHYAFGCKRPTFSNTYYPALASPNVEVVTDGIVEVQERGVLTADGAFREVDTIVMGTGFRMGDNPSFDTIRGQDGRSLAQTWNGSAEAFLGTTISGFPNFFMILGPNSVVYTSQVVTIEAQVEYIVSCILQMDERGIGSIDVRADVQREFVRATDRRLATSVWNAGGCSSYYLVDGGRNYTFYPGFNRSFRARTKRADLAHYAQVQPVSSAALTTARETVRSR
modifications: Rhodococcus erythropolis AN12
B7: ORF 16: Rhodococcus erythropolis AN12 ORF 16 chnB monooxygenase, protein SEQ ID NO:38, expressed in E. coli (protein)
chain: VKLPEHVETLIVGAGFAGMGLAARMLRDNRTADVVLIERGADIGGTWRDNTYPGCACDVPTALYSYSFAPSADWSHTFARQPEIYDYLKKVAADTGIGDRVILNCELEAAVWDEDAALWRVRTSLGSLTVKALVAATGALSTPKIPDFPGLDQFSGTTFHSATWNHEHELRGERVAVIGTGASAVQFVPEIADPAAHVTVFQRTPAWVIPRMDRTLPAAQKAVYSRIPATQKVVRGAVYGFRELLGAAMSHATWVLPAFEAAARLHLRRQVKDPELRRKLTPDFTIGCKRMLLSNDWLRTLDRADVSLVDSGLVSVTEGGVVDGHGVEHKVDTIIFATGFTPTEPPVAHLITGKRGETLAAHWNGSPNAYKGTAVSGFPNLFLMYGPNTNLGHSSIVYMLESQAEYVNDALNTMKRERLDALDVNESVQVHYNKGIQHELQHTVWNKGGCSSWYIDPEGRNSVQWPTFTFKFRSLLEHFDRENYSARKIESVQA
modifications: Rhodococcus erythropolis AN12

The test in a line: Conversion of cyclohexanone to caprolactone by E. coli clones expressing Rhodococcus erythropolis AN12 monooxygenases, GC-MS detection. In kind it is cell-based, Escherichia coli. The note with it: 500 mg/L cyclohexanone, 0.1 mM IPTG, overnight at 24° C., GC-MS of ethylacetate extract. How it is done:
Following amplification, the gene fragments were cloned into pTrcHis-TOPO TA vectors with either an N-terminal tail or C-terminal tail, as provided by the vector sequence. These vectors were transformed into E. coli, with transformants grown in Luria-Bertani broth supplemented with ampicillin (100 ug/ml).
The chnB monooxygenase activity of each expressed enzyme from Example 9 was tested for activity according to its ability to convert cyclohexanone to caprolactone.
Clones containing the full length monooxygenase genes were transferred from LB agar plate to 5 mL of M63 minimal media (GIBCO) containing 10 mM glycerol, 50 ug/mL ampicillin, 0.1 mM IPTG, and 500 mg/L cyclohexanone. In addition to the clones containing full length monooxygenases, a plasmid without an insert and a “no cell” control were also assayed. The encoded monooxygenase sequences were expressed upon addition of IPTG to the culture media. The cultures were incubated overnight at room temperature (24° C.). Samples (1.25 mL) for analysis were taken immediately after inoculation and after overnight incubation; cells were removed by centrifugation (4° C., 13,000 rpm).
Caprolactone formed by the action of the cloned monooxygenase was extracted from the aqueous phase with ethylacetate (1.0 ml aqueous/0.5 mL ethylacetate). Caprolactone was detected by gas chromotagraphy mass spectrometry (GC-MS) analysis, using an Agilent 6890 Gas chromatograph system.
The analysis of the ethylacetate phase was performed by injecting 1 uL of the ethyl acetate phase into the GC. The inlet temperature was 115° C. and the column temperature profile was 50° C. for 4 min and ramped to 250° C. at 20° C./min, for a total run time of 14 min. The compounds were separated with an Hewlet Packard HP-5MS (5% phenyl Methyl Siloxane) column (30 m length, 250 um diameter, and 0.25 um film thickness). The mass spectrometer was run in Electron Ionization mode. The background mass spectra was subtracted from the spectra at the retention time of caprolactone (9.857 min). Presence of caprolactone was confirmed by comparison of the test reactions to an authentic standard obtained from Aldrich Chemical Company (St. Louis, Mo.).
Results of these assays are shown below in Table 7, in terms of the presence or absence of detectable caprolactone formation according to the activity of each expressed BV monooxygenase enzyme.
Turning to B1, the “Formation of Caprolactone (ability to convert cyclohexanone to caprolactone)” value (“Formation of Caprolactone” below) is “Detected”. On to B2, for which the “Formation of Caprolactone” value is listed as “Detected”. On to B3, for which the “Formation of Caprolactone” value was “Detected”. For B4, the “Formation of Caprolactone” value is “Detected”. The value for B5 was “Detected”. As to B6, the “Formation of Caprolactone” value was “Detected”. B7: the “Formation of Caprolactone” value is on record as “Detected”.
